In the supplement of paper PMC10567573:

B1: SFRS1 (parent)
chain: YSPRRSRGSPRYSPRHSRSRSRT

Variants of: B1
Assay: protein stability index of a GFP-peptide fusion (GPS, HEK-293T) (PSI 1-6); higher = more stable
Settings: c terminus: native
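Also: lentivirally expressed fusions sorted by FACS into six bins by GFP to DsRed ratio, PSI derived from sequencing read proportions per bin multiplied by bin number.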

Protein stability index, by site and new letter:
R18: H 3.28 | Q 3.27 | W 2.93 | T 3.46 | G 3.27 | Y 3.07 | V 3.68 | M 2.87 | A 3.64 | S 2.9 | L 3.44 | C 2.61 | D 2.77 | K 2.94 | I 3.43 | P 2.52 | E 2.44
R4: N 3.13 | T 2.83 | V 3.24 | D 2.74 | L 2.76 | H 3.29 | Y 2.56 | A 2.82 | W 2.38 | I 2.65 | Q 3.53 | G 3.82 | E 3.12 | C 2.28
S17: W 3.69 | P 4.19 | E 3.9 | M 4.06 | C 4 | N 3.81 | Q 4 | V 3.73 | A 4.15 | L 3.69 | H 3.77 | F 4.13 | G 3.53 | T 4.05 | D 3.75 | R 4.49 | Y 3.6 | I 4.04
R22: K 3.77 | T 3.97 | S 3.5 | W 3.32 | C 3.62 | L 4.25 | P 4.04 | Q 4.06 | G 3.27 | I 3.8 | Y 3.9 | D 3.85 | V 4.05
R7: S 3.4 | V 2.24 | A 2.97 | F 2.43 | W 1.95 | K 3.77 | H 2.61 | Y 3.38 | L 2.03 | M 2.47 | I 1.66 | G 2.47 | D 3.22 | P 2.91 | E 2.15 | Q 3.54
S13: D 3.72 | Q 3.76 | W 2.9 | F 3.59 | C 1.35 | E 4.01 | G 4.41 | M 3.82 | A 3.41 | R 4.11 | I 3.71 | K 4.64 | T 3.63 | N 3.64
P14: S 3.54 | A 4.03 | G 4.46 | E 4.04 | K 4.57 | Y 3.64 | F 3.21 | I 4.15 | T 3.89 | N 4.28 | C 1.97 | H 4.16 | W 3.22
R15: K 3.98 | Y 3.06 | I 3.05 | V 2.65 | F 2.17 | T 2.58 | N 3.34 | M 3.48 | Q 3.39 | D 3.16 | S 3.82
S9: G 4.24 | D 3.99 | P 3.86 | Y 3.43 | L 3.38 | V 3.8 | R 4.37 | I 3.1 | H 3.16 | K 3.83 | F 3.35 | M 3.07 | A 3.94 | T 3.74 | N 4.23 | E 3.71
S6: W 3.43 | T 4.02 | R 4.01 | H 3.66 | Q 4.33 | F 3.27 | V 3.09 | E 3.26 | I 3.22 | L 2.65 | C 2.81 | A 4.13 | D 3.83 | K 3.01
S2: D 4.09 | V 1.85 | F 3.52 | K 3.9 | I 3.27 | G 4.27 | A 2 | W 4.07 | H 2.75 | C 1.94 | Y 3.62 | R 4.84 | P 3.71
S21: G 2.67 | R 4.2 | W 4.19 | E 3.8 | Y 4 | H 3.79 | P 4.3 | L 3.23 | A 3.41 | C 3.06 | V 3.49 | D 3.79 | K 3.79 | F 3.95 | T 3.34 | M 3.94 | I 3.28 | Q 3.62
S19: G 3.95 | D 3.75 | W 3.76 | Q 3.89 | H 3.89 | R 3.55 | Y 3.96 | T 3.68 | M 2.9 | A 2.98 | C 3.71 | P 4.39 | F 3.75 | E 3.14 | I 3.8
R20: L 4.08 | K 3.85 | H 4.12 | I 3.69 | W 1.77 | S 4.21 | Q 4.04 | N 4.44 | T 3.6 | C 3.49 | M 3.4 | P 3.81 | V 3.66 | D 4.36
G8: I 3.46 | F 2.13 | Y 3.05 | E 3.44 | C 2.98 | P 3.5 | W 2.25 | D 3.45 | K 3.98 | H 3.55 | Q 3.53 | V 3.31
R5: W 1.84 | D 3.53 | E 3.54 | P 2.75 | L 2.58 | A 3.98 | F 2.52 | T 2.8 | V 2.87 | N 3.24 | Q 3.5 | Y 3.01 | K 3.14 | G 3 | H 4.37
P10: D 4.25 | Q 3 | H 4.38 | Y 3.67 | C 3.45 | K 4.4 | V 3.69 | M 3.73 | N 4.31 | W 3.4 | A 4 | I 3.41 | F 3.07
H16: W 3.14 | V 3.93 | N 4.1 | Q 4.02 | F 3.83 | R 4.5 | E 3.47 | M 3.95 | C 3.96 | T 4.27 | K 4.35 | S 4.5 | Y 4.45 | L 4.35 | D 4.05 | G 4.31
T23: F 4.22 | D 3.32 | C 3.5 | Q 2.61 | Y 4.44 | K 4.73 | S 3.4 | W 3.79 | L 1.96 | P 4.23 | I 4.04 | H 2.64 | R 4.22 | N 3.17 | M 3.33
R11: T 3.29 | K 3.85 | E 2.39 | W 1.79 | N 3.98 | D 2.31 | S 3.3 | P 3.44 | L 2.85 | Y 2.54 | C 2.36 | I 2.73 | A 3.25 | M 3.47 | Q 4.39 | G 3.5 | F 2.8
Y12: N 4.21 | K 3.73 | P 3.99 | V 4.18 | D 4.38 | M 3.62 | H 3.28 | I 3.72 | L 4.03 | T 4.27 | Q 4.43 | C 3.61
Y1: N 5.03 | Q 4.55 | A 4.29 | E 3.92 | H 4.86 | K 4.1 | V 4.65 | I 4.17 | P 4.55 | C 3.99 | M 3.9 | D 3.9 | R 5.25 | T 4.43 | G 4.65
P3: I 2.8 | E 4.18 | H 4.16 | K 3.56 | L 3.8 | D 4.51 | T 4.22 | C 3.4 | W 3.11 | Y 4.24 | M 3.58 | Q 3.72 | V 4.06
